# Measured values reported in patent US20240293509A1, “METHODS OF TREATING INFLAMMATORY BOWEL DISEASE” (UNIVERSITY OF PITTSBURGH - OF THE COMMONWEALTH SYSTEM OF …, priority 2021, published 2024).
# Assay: In vitro degradation of IL-2 in simulated gastric fluid
# Assay type: in vitro ADME
# Conditions: free IL-2, pH 2.0, 100 min, 37° C., ELISA
# Method: In silico and in vitro degradation of bioactive factors within the gastric environment. The in silico cytokine degradation was predicted using the Expasy PeptideCutter software package (E. Gasteiger et al., in The Proteomics Protocols Handbook, J. M. Walker, Ed. (Humana Press, Totowa, N J, 2005), pp. 571-607). In vitro degradation of IL-2 was measured in simulated gastric fluid (Ricca Chemical Company, Arlington, Texas) at pH 2.0. For the second set of the experimental conditions, pepsin (3.2 μg/L, Sigma) was also included. The samples were incubated for […] at 37° C. on a rocker and then neutralized before ELISA assay (R and D systems) for the soluble factors. For the MP containing factors, following treatment in the simulated gastric fluid the MPs were removed and washed multiple times with PBS supplemented with BSA and then incubated for 22 hours in PBS with 0.5% BSA. The released IL-2 was then quantitated with an ELISA excluding that which was released during the initial […] incubation in the simulated gastric fluid.
substance,measurement,value
"IL-2: recombinant IL-2 (murine, R&D Systems); in silico prediction on SEQ ID NO: 9",degradation in simulated gastric fluid containing pepsin,complete degradation
